# Results taken from US20210139548A1 (published 2021).
# *1 amine or outer side, *2 acyl side, *3 side chain or, on linkers, in order; H or OH if unused. Side-chain parts run from the residue outwards. The star is where a group is joined. C18 diacid = O=C(O)CCCCCCCCCCCCCCCCC(=O)*; γGlu = O=C(O)[C@H](CCC(=O)[*:2])N[*:1]; Isovaleryl = CC(C)CC(=O)*; AEEA = NCCOCCOCC(=O)O
# T1: human neuropeptide Y2 receptor (human, UniProt P49146 1-381)
# T1 construct: whole, on cells; also called hNPY2 receptor; hNPY2-R
# T1 sequence (looked up): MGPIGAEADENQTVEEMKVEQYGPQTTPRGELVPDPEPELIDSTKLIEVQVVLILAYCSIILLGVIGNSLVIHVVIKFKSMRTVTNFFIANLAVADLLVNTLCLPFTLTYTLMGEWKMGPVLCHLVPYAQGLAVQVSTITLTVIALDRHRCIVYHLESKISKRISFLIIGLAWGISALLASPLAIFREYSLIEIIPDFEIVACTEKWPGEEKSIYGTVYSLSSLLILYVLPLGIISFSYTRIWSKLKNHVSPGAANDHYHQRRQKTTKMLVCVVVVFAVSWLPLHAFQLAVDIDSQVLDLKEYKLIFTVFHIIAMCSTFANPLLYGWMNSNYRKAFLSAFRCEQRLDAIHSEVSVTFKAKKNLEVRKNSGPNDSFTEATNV
# B1: Compound 1 (peptide)
# peptide: Isovaleryl-APEK([AEEA-AEEA-γGlu-C18 diacid])PEEDAQPEELQEYYVSLRHYYNWLTRQRY-NH2
# SMILES: CC(C)CC(=O)N[C@@H](C)C(=O)N1CCC[C@H]1C(=O)N[C@@H](CCC(=O)O)C(=O)N[C@@H](CCCCNC(=O)COCCOCCNC(=O)COCCOCCNC(=O)CC[C@H](NC(=O)CCCCCCCCCCCCCCCCC(=O)O)C(=O)O)C(=O)N1CCC[C@H]1C(=O)N[C@@H](CCC(=O)O)C(=O)N[C@@H](CCC(=O)O)C(=O)N[C@@H](CC(=O)O)C(=O)N[C@@H](C)C(=O)N[C@@H](CCC(N)=O)C(=O)N1CCC[C@H]1C(=O)N[C@@H](CCC(=O)O)C(=O)N[C@@H](CCC(=O)O)C(=O)N[C@@H](CC(C)C)C(=O)N[C@@H](CCC(N)=O)C(=O)N[C@@H](CCC(=O)O)C(=O)N[C@@H](Cc1ccc(O)cc1)C(=O)N[C@@H](Cc1ccc(O)cc1)C(=O)N[C@H](C(=O)N[C@@H](CO)C(=O)N[C@@H](CC(C)C)C(=O)N[C@@H](CCCNC(=N)N)C(=O)N[C@@H](Cc1c[nH]cn1)C(=O)N[C@@H](Cc1ccc(O)cc1)C(=O)N[C@@H](Cc1ccc(O)cc1)C(=O)N[C@@H](CC(N)=O)C(=O)N[C@@H](Cc1c[nH]c2ccccc12)C(=O)N[C@@H](CC(C)C)C(=O)N[C@H](C(=O)N[C@@H](CCCNC(=N)N)C(=O)N[C@@H](CCC(N)=O)C(=O)N[C@@H](CCCNC(=N)N)C(=O)N[C@@H](Cc1ccc(O)cc1)C(N)=O)[C@@H](C)O)C(C)C
# B2: Compound 3 (peptide)
# peptide: Isovaleryl-APEK([AEEA-AEEA-γGlu-C18 diacid])PEEEASPAELQRYYVSLRHYYNWLTRQRY-NH2
# SMILES: CC(C)CC(=O)N[C@@H](C)C(=O)N1CCC[C@H]1C(=O)N[C@@H](CCC(=O)O)C(=O)N[C@@H](CCCCNC(=O)COCCOCCNC(=O)COCCOCCNC(=O)CC[C@H](NC(=O)CCCCCCCCCCCCCCCCC(=O)O)C(=O)O)C(=O)N1CCC[C@H]1C(=O)N[C@@H](CCC(=O)O)C(=O)N[C@@H](CCC(=O)O)C(=O)N[C@@H](CCC(=O)O)C(=O)N[C@@H](C)C(=O)N[C@@H](CO)C(=O)N1CCC[C@H]1C(=O)N[C@@H](C)C(=O)N[C@@H](CCC(=O)O)C(=O)N[C@@H](CC(C)C)C(=O)N[C@@H](CCC(N)=O)C(=O)N[C@@H](CCCNC(=N)N)C(=O)N[C@@H](Cc1ccc(O)cc1)C(=O)N[C@@H](Cc1ccc(O)cc1)C(=O)N[C@H](C(=O)N[C@@H](CO)C(=O)N[C@@H](CC(C)C)C(=O)N[C@@H](CCCNC(=N)N)C(=O)N[C@@H](Cc1c[nH]cn1)C(=O)N[C@@H](Cc1ccc(O)cc1)C(=O)N[C@@H](Cc1ccc(O)cc1)C(=O)N[C@@H](CC(N)=O)C(=O)N[C@@H](Cc1c[nH]c2ccccc12)C(=O)N[C@@H](CC(C)C)C(=O)N[C@H](C(=O)N[C@@H](CCCNC(=N)N)C(=O)N[C@@H](CCC(N)=O)C(=O)N[C@@H](CCCNC(=N)N)C(=O)N[C@@H](Cc1ccc(O)cc1)C(N)=O)[C@@H](C)O)C(C)C
# B3: Compound 5 (peptide)
# peptide: Isovaleryl-APEK([AEEA-AEEA-γGlu-C18 diacid])PEEEVSPEELQRYYVSLRHYYNWLTRQRY-NH2
# SMILES: CC(C)CC(=O)N[C@@H](C)C(=O)N1CCC[C@H]1C(=O)N[C@@H](CCC(=O)O)C(=O)N[C@@H](CCCCNC(=O)COCCOCCNC(=O)COCCOCCNC(=O)CC[C@H](NC(=O)CCCCCCCCCCCCCCCCC(=O)O)C(=O)O)C(=O)N1CCC[C@H]1C(=O)N[C@@H](CCC(=O)O)C(=O)N[C@@H](CCC(=O)O)C(=O)N[C@@H](CCC(=O)O)C(=O)N[C@H](C(=O)N[C@@H](CO)C(=O)N1CCC[C@H]1C(=O)N[C@@H](CCC(=O)O)C(=O)N[C@@H](CCC(=O)O)C(=O)N[C@@H](CC(C)C)C(=O)N[C@@H](CCC(N)=O)C(=O)N[C@@H](CCCNC(=N)N)C(=O)N[C@@H](Cc1ccc(O)cc1)C(=O)N[C@@H](Cc1ccc(O)cc1)C(=O)N[C@H](C(=O)N[C@@H](CO)C(=O)N[C@@H](CC(C)C)C(=O)N[C@@H](CCCNC(=N)N)C(=O)N[C@@H](Cc1c[nH]cn1)C(=O)N[C@@H](Cc1ccc(O)cc1)C(=O)N[C@@H](Cc1ccc(O)cc1)C(=O)N[C@@H](CC(N)=O)C(=O)N[C@@H](Cc1c[nH]c2ccccc12)C(=O)N[C@@H](CC(C)C)C(=O)N[C@H](C(=O)N[C@@H](CCCNC(=N)N)C(=O)N[C@@H](CCC(N)=O)C(=O)N[C@@H](CCCNC(=N)N)C(=O)N[C@@H](Cc1ccc(O)cc1)C(N)=O)[C@@H](C)O)C(C)C)C(C)C
# B4: Compound 6 (peptide)
# peptide: Isovaleryl-APEK([AEEA-AEEA-γGlu-C18 diacid])PEEEASPEELQRYYVSARHYYNWLTRQRY-NH2
# SMILES: CC(C)CC(=O)N[C@@H](C)C(=O)N1CCC[C@H]1C(=O)N[C@@H](CCC(=O)O)C(=O)N[C@@H](CCCCNC(=O)COCCOCCNC(=O)COCCOCCNC(=O)CC[C@H](NC(=O)CCCCCCCCCCCCCCCCC(=O)O)C(=O)O)C(=O)N1CCC[C@H]1C(=O)N[C@@H](CCC(=O)O)C(=O)N[C@@H](CCC(=O)O)C(=O)N[C@@H](CCC(=O)O)C(=O)N[C@@H](C)C(=O)N[C@@H](CO)C(=O)N1CCC[C@H]1C(=O)N[C@@H](CCC(=O)O)C(=O)N[C@@H](CCC(=O)O)C(=O)N[C@@H](CC(C)C)C(=O)N[C@@H](CCC(N)=O)C(=O)N[C@@H](CCCNC(=N)N)C(=O)N[C@@H](Cc1ccc(O)cc1)C(=O)N[C@@H](Cc1ccc(O)cc1)C(=O)N[C@H](C(=O)N[C@@H](CO)C(=O)N[C@@H](C)C(=O)N[C@@H](CCCNC(=N)N)C(=O)N[C@@H](Cc1c[nH]cn1)C(=O)N[C@@H](Cc1ccc(O)cc1)C(=O)N[C@@H](Cc1ccc(O)cc1)C(=O)N[C@@H](CC(N)=O)C(=O)N[C@@H](Cc1c[nH]c2ccccc12)C(=O)N[C@@H](CC(C)C)C(=O)N[C@H](C(=O)N[C@@H](CCCNC(=N)N)C(=O)N[C@@H](CCC(N)=O)C(=O)N[C@@H](CCCNC(=N)N)C(=O)N[C@@H](Cc1ccc(O)cc1)C(N)=O)[C@@H](C)O)C(C)C
# B5: Compound 7 (peptide)
# peptide: Isovaleryl-APEK([AEEA-AEEA-γGlu-C18 diacid])PEEDASPEELQAYYVSLRHYYNWLTRQRY-NH2
# SMILES: CC(C)CC(=O)N[C@@H](C)C(=O)N1CCC[C@H]1C(=O)N[C@@H](CCC(=O)O)C(=O)N[C@@H](CCCCNC(=O)COCCOCCNC(=O)COCCOCCNC(=O)CC[C@H](NC(=O)CCCCCCCCCCCCCCCCC(=O)O)C(=O)O)C(=O)N1CCC[C@H]1C(=O)N[C@@H](CCC(=O)O)C(=O)N[C@@H](CCC(=O)O)C(=O)N[C@@H](CC(=O)O)C(=O)N[C@@H](C)C(=O)N[C@@H](CO)C(=O)N1CCC[C@H]1C(=O)N[C@@H](CCC(=O)O)C(=O)N[C@@H](CCC(=O)O)C(=O)N[C@@H](CC(C)C)C(=O)N[C@@H](CCC(N)=O)C(=O)N[C@@H](C)C(=O)N[C@@H](Cc1ccc(O)cc1)C(=O)N[C@@H](Cc1ccc(O)cc1)C(=O)N[C@H](C(=O)N[C@@H](CO)C(=O)N[C@@H](CC(C)C)C(=O)N[C@@H](CCCNC(=N)N)C(=O)N[C@@H](Cc1c[nH]cn1)C(=O)N[C@@H](Cc1ccc(O)cc1)C(=O)N[C@@H](Cc1ccc(O)cc1)C(=O)N[C@@H](CC(N)=O)C(=O)N[C@@H](Cc1c[nH]c2ccccc12)C(=O)N[C@@H](CC(C)C)C(=O)N[C@H](C(=O)N[C@@H](CCCNC(=N)N)C(=O)N[C@@H](CCC(N)=O)C(=O)N[C@@H](CCCNC(=N)N)C(=O)N[C@@H](Cc1ccc(O)cc1)C(N)=O)[C@@H](C)O)C(C)C
# B6: Compound 4 (peptide)
# peptide: Isovaleryl-APEK([AEEA-AEEA-γGlu-C18 diacid])PEEDASPEELQRYYVSLRHYYNWLQRQRY-NH2
# SMILES: CC(C)CC(=O)N[C@@H](C)C(=O)N1CCC[C@H]1C(=O)N[C@@H](CCC(=O)O)C(=O)N[C@@H](CCCCNC(=O)COCCOCCNC(=O)COCCOCCNC(=O)CC[C@H](NC(=O)CCCCCCCCCCCCCCCCC(=O)O)C(=O)O)C(=O)N1CCC[C@H]1C(=O)N[C@@H](CCC(=O)O)C(=O)N[C@@H](CCC(=O)O)C(=O)N[C@@H](CC(=O)O)C(=O)N[C@@H](C)C(=O)N[C@@H](CO)C(=O)N1CCC[C@H]1C(=O)N[C@@H](CCC(=O)O)C(=O)N[C@@H](CCC(=O)O)C(=O)N[C@@H](CC(C)C)C(=O)N[C@@H](CCC(N)=O)C(=O)N[C@@H](CCCNC(=N)N)C(=O)N[C@@H](Cc1ccc(O)cc1)C(=O)N[C@@H](Cc1ccc(O)cc1)C(=O)N[C@H](C(=O)N[C@@H](CO)C(=O)N[C@@H](CC(C)C)C(=O)N[C@@H](CCCNC(=N)N)C(=O)N[C@@H](Cc1c[nH]cn1)C(=O)N[C@@H](Cc1ccc(O)cc1)C(=O)N[C@@H](Cc1ccc(O)cc1)C(=O)N[C@@H](CC(N)=O)C(=O)N[C@@H](Cc1c[nH]c2ccccc12)C(=O)N[C@@H](CC(C)C)C(=O)N[C@@H](CCC(N)=O)C(=O)N[C@@H](CCCNC(=N)N)C(=O)N[C@@H](CCC(N)=O)C(=O)N[C@@H](CCCNC(=N)N)C(=O)N[C@@H](Cc1ccc(O)cc1)C(N)=O)C(C)C
# Biological target: T1, human neuropeptide Y2 receptor
# Test: radioligand competition (125I-PYY(1-36)), hNPY2R membranes
# Description: The filtration RLB assay was carried out in 96-well plates in a final volume of 100 μl per well. Freeze-dried test peptides were dissolved in 100% dimethyl sulfoxide (DMSO) to stock solutions of 1 mM and serial dilutions were performed in assay buffer (50 mM HEPES, 5 mM MgCl₂, 1 mM CaCl₂, pH 7.4) containing 0.2% ovalbumin. […] Next, 80 μL membranes (HTS066M, ChemiSCREEN™ Human Neuropeptide Y2 Receptor Membrane Preparation, CHEMICON) were added to each well to give a final protein concentration of 0.5 μg/well. The plates were sealed and incubated at room temperature for 2 hours in a plate shaker set at 400 rpm. The incubation was stopped by vacuum filtration onto 0.5% poly-ethylene amine (PEI) presoaked GF/C filters using a 96-well FilterMate™ harvester (Perkin Elmer) followed by four washes with 300 μl/well ice-cold wash buffer (50 mM HEPES, 500 mM NaCl, pH7.4). Filter plates were then dried for 60 min at room temperature and the bottom of the plates was sealed with backing tape UniFilter-96. Finally, 50 μl/well scintillation counter cocktail (Microscint20, Packard) was added and the radioactivity was counted in the Packard TopCount NXT scintillation counter. IC₅₀ values (the half maximal inhibitory concentration of the agonist) were calculated by nonlinear regression analysis of sigmoidal dose-response curves.
row,Binder,Ki
1,B1,2.5 nM
2,B2,3.14 nM
3,B3,14.8 nM
4,B4,6.52 nM
5,B5,1.02 nM
6,B6,1.43 nM
